Reference: US10858422B2, “Methods for treating systemic lupus erythematosus with an anti-apolipoprotein B antibody” (Abcentra, LLC, priority 2016, dated 2020)
Where “and” joins values, the source holds several entries; their conditions need not be identical. Equal values may be shown once. Read-outs that look alike come from different tables or passages of the source.

Columns and labels:
[1] = in vivo, iv
Text: Random allocation was stratified by T2DM status and pre-diabetes status, presence of elevated screening tissue-to-background ratio TBR>2), and study site.

[2] = test system: monocyte chemoattractant protein 1, MCP-1; assay: In vitro inhibition of oxLDL-mediated cytokine release (MCP-1); type: cell-based
Method: The ability of orticumab to shut down macrophage pro-inflammatory activity locally in the plaque became the focus, as it was thought to be an important mechanism underlying its therapeutic activity. Initial hypothesis of using orticumab related to neutralizing oxLDL from the systemic compartment, which required 4 μg/mL=˜28 nM=11 mg of orticumab to neutralize 90% systemic oxLDL. Further in vitro assays provided an insight into the minimum effective concentration of orticumab needed to achieve 50% or 90% inhibition of oxLDL-mediated cytokine release (i.e., inhibition of monocyte chemoattractant protein 1, MCP-1): […]

[3] = in vivo
[4] = Second Phase I (Ph1): single-dose bioavailability after subcutaneous and intravenous administration; settings: for tmax: Median (min-max)
[5] = test system: healthy subjects with elevated LDL cholesterol; assay: Phase I dose-escalation trial: biomarkers and lipids; type: in vivo, human; settings: healthy volunteers
Text: Study population: 80 healthy subjects with elevated LDL cholesterol.
The panel included: oxLDL, Lp-PLA2, hsCRP, sCD36, MCP-1, ICAM-1, IL-10, VCAM-1, IL-1ra, TNFα, insulin, and MMP-3.

[6] = in vivo; remark: listed apart in the source
[7] = test system: patients with atherosclerosis and evidence of carotid or aortic plaque inflammation; assay: Phase IIa: arterial inflammation by FDG-PET/CT (index vessel MDS-TBR); type: in vivo, human; settings: versus placebo; single (1245 mg IV) and multiple infusion groups
Method: The study enrolled 147 participants (83% male; mean age 63.0±9.0 years) with atherosclerosis and evidence of carotid or aortic plaque inflammation, measured by FDG-PET/computed tomography (CT). Because there is poor correlation between serum LDL levels and both serum and plaque oxLDL levels, patients were enrolled with a relatively wide range of serum LDL levels (fasting LDL>60 mg/dL at screening, which includes patients both above and below National Cholesterol Education Program Adult Treatment Panel III treatment goals). 139 patients completed the study.
The study consisted of a 28-day screening period, a 78-day treatment period, and a 90-day follow-up period. […] During the screening period, patient acceptability for the study was assessed on the basis of medical history, concomitant medications, physical examination, and clinical laboratory test results. Once a patient passed this initial screening phase, acceptability for study participation was confirmed on the basis of a TBR>1.8 in the qualifying vessel, as quantified by FDG-PET/CT. […]
The primary outcome variable was change in index vessel MDS-TBR (most diseased segment-target to background ratio) measured by FDG-PET/CT from baseline to week 12. Arterial FDG uptake was assessed as target to-background ratio (TBR). […]

[8] = oxLDL-mediated cytokine release
[9] = Intravenous (Cohort A, Period 1), single dose 360 mg, Mean (SD)
[10] = Subcutaneous (Cohort A, Period 2), single dose 360 mg, Mean (SD)
[11] = Subcutaneous (Cohort B), single dose 360 mg, Mean (SD)

Question: With “orticumab: recombinant human IgG1 against MDA-modified peptide 45 of ApoB100; heavy chain SEQ ID NO: 316, light chain SEQ ID NO: 317” as the substance, how does the “Cmax D 1” value [1] read?
Answer: The value was 297 μ/mL.

Question: And the “IC50 for MCP-1 inhibition” value ([2]; expressed as amount)?
Answer: Its value is roughly 4 mg.

Question: And the “IC90 for MCP-1 inhibition” value ([2]; expressed as amount)?
Answer: Its value is 12.4 to 33 mg.

Question: What about the “IC50 for MCP-1 inhibition” value [2, 8] of the same substance?
Answer: The value was 1.5 µg/mL.

Question: What about the IC90 [2, 8] of the same substance?
Answer: Its IC90 is 30 to 80 nM.

Question: And the “IC90 for MCP-1 inhibition” value [2, 8]?
Answer: The value was 4.5 to 12 µg/mL.

Question: What about the “C ≥ 1 μg/mL” value [3] of the same substance?
Answer: Its value is “Day 57”.

Question: What about the “C ≥ 4 μg/mL” value [3] of the same substance?
Answer: Its value is “Day 15”.

Question: What about the “C ≥ 12 μg/mL” value [3] of the same substance?
Answer: The value was “Day 8”.

Question: What about the t1/2 ([3]; iv, 360 mg) of the same substance?
Answer: Its t1/2 is 20.3 (2.91) d.

Question: And the “C ≥ 1 μg/mL” value ([3]; sc)?
Answer: Its value is “Day 43”.

Question: And the “C ≥ 4 μg/mL” value ([3]; sc)?
Answer: The value was “Day 15”.

Question: What about the “AUC(0-inf)” value [4, 9] of the same substance?
Answer: The value was 412 (87.3) μg * d/mL.

Question: And the “AUC(0-last)” value [4, 9]?
Answer: The value was 380 (76.4) μg * d/mL.

Question: What about the CL [4, 9] of the same substance?
Answer: The CL was 0.906 (0.168) L/d.

Question: And the Cmax [4, 9]?
Answer: The Cmax was 84.3 (16.9) μg/mL.

Question: What about the MRT [4, 9] of the same substance?
Answer: Its MRT is 16.9 (3.02) d.

Question: What about the Vss [4, 9] of the same substance?
Answer: The Vss was 15.2 (3.25) L.

Question: What about the Vz [4, 9] of the same substance?
Answer: The Vz was 26.3 (5.34) L.

Question: And the tmax ([4]; Intravenous (Cohort A, Period 1), single dose 360 mg)?
Answer: Its tmax is 0.04 (0.04-0.04) d.

Question: And the Cmax ([4]; Ph1 trial, single dosing, 360 mg IV)?
Answer: Its Cmax is 84.3 µg/mL.

Question: And the Cmax ([4]; Ph1 trial, single dosing, 360 mg SC)?
Answer: Its Cmax is 9.15 µg/mL.

Question: And the Cmax ([4]; Ph1 trial, single dosing, 360 mg SC 70-90 days after IV dosing)?
Answer: Its Cmax is 15.1 µg/mL.

Question: And the “AUC(0-last)” value [4, 10]?
Answer: Its value is 215 (60.0) μg * d/mL.

Question: And the Cmax [4, 10]?
Answer: The Cmax was 15.1 (4.50) μg/mL.

Question: What about the “AUC(0-inf)” value ([4]; Subcutaneous (Cohort A, Period 2), single dose 360 mg, Mean (SD), corrected by subtracting AUCresidual from Period 1) of the same substance?
Answer: The value was 236 (69.7) μg * d/mL.

Question: And the tmax ([4]; Subcutaneous (Cohort A, Period 2), single dose 360 mg)?
Answer: Its tmax is 3.99 (1.96-6.91) d.

Question: What about the “AUC(0-inf)” value [4, 11] of the same substance?
Answer: Its value is 194 (45.6) μg * d/mL.

Question: And the “AUC(0-last)” value [4, 11]?
Answer: The value was 178 (39.6) μg * d/mL.

Question: What about the Cmax [4, 11] of the same substance?
Answer: Its Cmax is 9.15 (3.86) μg/mL.

Question: And the tmax ([4]; Subcutaneous (Cohort B), single dose 360 mg)?
Answer: The tmax was 3.91 (1.00-4.02) d.

Question: What about the t½ ([4]; both routes of administration) of the same substance?
Answer: Its t½ is “about 20 days”.

Question: And the “increase of SC bioavailability by a prior IV dose” value ([4]; in vivo)?
Answer: Its value is “approximately 9%”.

Question: What about the median tmax ([4]; single SC dose) of the same substance?
Answer: Its median tmax is 96 h.

Question: What about the “Cmax of SC dose versus threshold” value ([4]; single SC dose 360 mg) of the same substance?
Answer: The value was “falls within range of 4-12 μg/mL”.

Question: And the “maximum mean serum concentration” value ([4]; single SC dose 360 mg, Cohort A, Period 2)?
Answer: Its value is 15.1 µg/mL.

Question: And the “maximum mean serum concentration” value ([4]; single SC dose 360 mg, Cohort B)?
Answer: The value was 9.15 µg/mL.

Question: And the “absolute bioavailability based on AUC(0-inf)” value ([4]; single SC dose of 360 mg)?
Answer: The value was 47%.

Question: And the bioavailability ([4]; single SC dose of 360 mg after at least 70 days washout from an initial IV dose)?
Answer: Its bioavailability is 56%.

Question: What about the ½-life ([4]; single dose 360 mg IV) of the same substance?
Answer: The ½-life was 33.5 days.

Question: What about the ½-life ([4]; single dose 360 mg SC) of the same substance?
Answer: The ½-life was 24.3 days and 24 days.

Question: And the “Cmax, max exposure IV vs SC” value ([4]; single dose at 360 mg (4.34 mg/kg))?
Answer: Its value is 9.2 times.

Question: What about the “biomarkers (oxLDL, Lp-PLA2, hsCRP, sCD36, MCP-1, ICAM-1, IL-10, VCAM-1, IL-1ra, TNFα, insulin, MMP-3)” value [5] of the same substance?
Answer: Its value is “No treatment-induced general effects”.

Question: What about the “SAEs during the study” value [6] of the same substance?
Answer: The value was “no SAEs”.

Question: And the “most frequently reported TEAEs” value ([6]; sc)?
Answer: Its value is “mild intensity local site reactions”.

Question: And the “arterial inflammation (index vessel MDS-TBR), baseline to week 12” value [7]?
Answer: Its value is “did not significantly reduce”.
